Experimental data as given in the supplement of paper PMC10567573.

B1: TEKT4 (parent)
chain: LREKLLEAEQSLRNLEDIHMSLEK
B2: BTBD1 (parent)
chain: YGSIHGPTDYQVNIQIIEYEKKQT

Variants of: B1
Assay: protein stability index of a GFP-peptide fusion (GPS, HEK-293T) (PSI 1-6); higher = more stable
Conditions: c terminus: a fixed tail appended
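Also: lentivirally expressed fusions sorted by FACS into six bins by GFP to DsRed ratio, PSI derived from sequencing read proportions per bin multiplied by bin number.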

Variant | protein stability index
R13C | 2.21
R13Q | 3.43
R13M | 2.52
R13T | 2.61
R13L | 2.18
R13G | 2.22
R13Y | 2.11
R13H | 3.38
R13P | 2.45
R13V | 2.96
R13W | 2.09
R13D | 3.69
R13F | 2.11
E3T | 1.63
E3C | 1.96
E3Y | 2.15
E3P | 2.24
E3F | 2.46
E3G | 1.96
E3Q | 2.82
E3K | 2.1
E3V | 2.01
S11G | 2.28
S11D | 2.57
S11K | 2.08
S11Y | 1.83

Variant | protein stability index
S11A | 1.5
S11P | 4.21
S11Q | 2.33
S11I | 4.94
S11V | 1.47
S11M | 1.05
L6D | 3.54
L6T | 2.94
L6W | 2.23
L6F | 2.34
L6M | 2.83
L6R | 2.86
L6G | 2.65
L6I | 1.86
L6Q | 2.91
L6Y | 2.61
L6C | 2.92
L6V | 2.65
L6H | 3.27
L6P | 5.19
K24R | 2.44
K24L | 1.93
K24H | 4
K24E | 2.53
K24I | 1.81
K24S | 2.35

Variant | protein stability index
K24G | 2.52
K24P | 2.03
K24C | 2.09
A8Y | 3.58
A8T | 2.61
A8S | 3
A8I | 1.48
A8F | 2.52
A8E | 3.99
A8N | 4.59
A8W | 1.8
S21F | 2.63
S21M | 1.75
S21V | 2.35
S21N | 2.6
S21Q | 1.92
S21R | 3.24
S21L | 1.59
S21D | 1.9
S21P | 2.82
S21T | 2.81
S21K | 2.37
S21E | 2.35
S21W | 2.38
S21C | 1.56
S21H | 1.99

Variant | protein stability index
L5I | 2.72
L5G | 4.83
L5N | 5.13
L5M | 3.2
L5Q | 5.21
L5K | 4.93
M20W | 2.55
M20C | 3.03
M20R | 2.36
M20D | 2.71
M20Y | 3.15
M20G | 3.51
M20N | 2.25
M20T | 2.98
E23R | 3.15
E23F | 2.3
E23A | 3.45
E23M | 2.39
E23D | 2.27
E23H | 2.21
E23C | 4.07
H19C | 2.96
H19F | 1.83
H19M | 2.79
H19G | 2.02
H19D | 3.48

Variant | protein stability index
H19T | 2.63
H19K | 2.8
H19P | 3.26
L12Y | 2.03
L12V | 3.3
L12T | 3.17
L12K | 3.98
L12R | 3.02
L12D | 5.05
L12M | 2.97
L12G | 3.89
L12W | 1.79
L12N | 4.57
L12A | 3.84
L12E | 4.97
E7D | 2.38
E7A | 2.46
E7W | 1.75
E7N | 2.39
E7I | 2.06
E7G | 3.75
E7M | 2.38
E7F | 2.5
E7S | 2.42
E7Q | 2.35
E7H | 3.6

Variant | protein stability index
E7C | 2.17
E7K | 2.51
E7V | 2.56
L1K | 4.27
L1Q | 4.67
L1F | 1.74
L1I | 1.82
L1Y | 2.61
L1G | 4.38
L1P | 4.12
L1W | 1.92
L1E | 5.12
L1C | 3.07
L1M | 3.12
L1D | 5.15
L1H | 3.92
L1A | 3.67
N14R | 2.78
N14P | 2.04
N14K | 2.27
N14W | 1.35
N14G | 2.71
N14H | 1.77
I18K | 3.16
I18G | 2.96
I18T | 3.28

Variant | protein stability index
I18A | 2.81
I18R | 2.63
I18E | 1.69
I18N | 3.43
I18Q | 2.62
I18V | 3.21
I18C | 2.63
I18W | 3.13
Q10H | 2.23
Q10Y | 1.85
Q10W | 1.98
Q10R | 2.69
Q10A | 3.49
Q10I | 1.34
Q10K | 2.37
Q10F | 2.89
Q10S | 2.79
Q10C | 3.01
Q10D | 1.92
Q10T | 2.77
R2M | 1.89
R2N | 1.86
R2D | 2.72
R2V | 1.7
R2T | 2.83
R2S | 2.33

Variant | protein stability index
R2P | 3.11
R2G | 2.34
R2Y | 2.05
R2H | 2.02
R2E | 2.43
R2I | 2.41
L15I | 2.64
L15H | 3.22
L15W | 1.93
L15Q | 2.64
L15N | 2.65
L15D | 1.55
L15M | 2.56
L15Y | 2.29
L15F | 3.29
L15G | 2
E9S | 2.61
E9C | 1.85
E9F | 1.37
E9G | 2.89
E9K | 3.17
E9W | 2.06
E9R | 3.25
E9V | 2.05
E9A | 2.38
E9P | 3.52

Variant | protein stability index
E9Y | 2.06
L22K | 3.54
L22Q | 2.33
L22T | 3.05
L22C | 3.73
L22G | 2.4
L22V | 2.09
L22F | 1.98
L22E | 2.98
L22I | 2.81
L22H | 2.89
L22S | 2.65
L22R | 3.2
K4E | 3.17
K4Q | 2.17
K4D | 4.01
K4T | 3.9
K4Y | 2.33
K4P | 3.54
K4W | 1.74
K4M | 1.76
K4C | 2.54
K4I | 2.36
D17N | 1.62
D17I | 1.58
D17A | 2.31

Variant | protein stability index
D17G | 2.81
D17W | 1.76
D17L | 1.89
D17T | 2.27
D17Q | 2.23
D17K | 2.32
E16I | 2.7
E16K | 2.3
E16H | 1.59
E16W | 1.18
E16C | 1.33
E16P | 2.71
E16G | 2.37
E16D | 2.35
E16Q | 2.15
E16R | 2.12
E16N | 1.94
E16A | 1.41

Variants of: B2
Assay: as above
Conditions: c terminus: a fixed tail appended

Variant | protein stability index
E20R | 2.08
E20Y | 1.88
E20T | 2.25
E20V | 1.84
E20W | 2.15
E20S | 2
K21D | 2.46
K21Q | 2.52
K21Y | 1.92
K21I | 2.42
K21F | 3.75
K21A | 1.82
K21E | 2.7
K21N | 2.32
K21H | 1.83
K21S | 2.13
K21C | 1.96
K21L | 1.65
K21R | 2.25
K21V | 1.59
K21G | 2.04

Variant | protein stability index
K21T | 2.24
K21M | 2.02
K21P | 1.95
K21W | 2.8
Q23Y | 1.93
Q23W | 2.56
Q23P | 2.28
Q23H | 2.31
Q23M | 2.18
Q23R | 2.51
Q23E | 2.72
Q23T | 2.13
Q23C | 1.8
Q23D | 2.46
Q23A | 2.33
Q23V | 2.12
Q23G | 2.76
Q23N | 2.88
Q23F | 1.61
Q23I | 1.81
Q23K | 2.74

Variant | protein stability index
Q23S | 2.43
Q23L | 1.6
T24F | 1.84
T24R | 2.69
T24C | 2.16
T24S | 2.98
T24E | 3.08
T24L | 2.03
T24I | 2.08
T24M | 2.36
T24P | 2.3
T24K | 3.05
T24N | 2.9
T24A | 3.1
T24D | 3.18
T24G | 2.57
T24W | 2.23
T24V | 2.43
T24Y | 2.21
T24Q | 3.18
T24H | 2.9

Variant | protein stability index
K22F | 1.39
K22T | 1.93
K22Y | 2.47
K22N | 2.5
K22P | 1.72
K22Q | 2.75
K22M | 2.59
K22L | 2.03
K22H | 2.03
K22D | 2.77
K22S | 1.78
K22R | 2.14
K22I | 1.56
K22G | 2.24
K22E | 2.96
K22V | 2.54
K22C | 1.52
K22W | 2.5
K22A | 2.18
